Variants at the floor of the assay were thinned out.
B1: TPR 5TU (parent)
chain: GGAUCUUCUCGAUCUAACAAAAAAGACAAAUCUGCCACAAAGCUUGAGAGCAUCUUCGGAUGCAGAGGCGGCAGCCUUCGGUGGCGCGAUAGCGCCAACGUUCUCAACUAUGACACGCAAAACGCGUGCUCCGUUGAAUGGAGUUUAUCAUG

Variants of: B1
Assay: polymerase ribozyme fitness, log enrichment relative to wild type (log ratio); higher = more active; in vitro selection for triplet polymerase activity
Method in brief: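 Fitness compares each genotype's enrichment to that of the wild type on a logarithmic scale, averaging replicates with inverse-variance weights. The logarithm is base 2. Enrichment came from Illumina sequencing of input and output libraries after one triplicate round of in vitro selection, which included frozen incubation at −7 °C, of PCR-built, transcribed mutant libraries of each subunit of a heterodimeric triplet polymerase ribozyme. Only genotypes with ≥10 input reads and ≥1 read per output were kept.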

Variant	polymerase ribozyme fitness (log ratio)
GGAUCUUCUCGAGCUAACUAACAAGACAAAUCUGCCACAAAGCUUCAGAGCAUCUUCGGAUGCAGAGGCGGCAGCCUUCGCUGGCGCGAUAGCGUCAACGUUCUCAACUAUGACACGCAAAACGCGUGCUCCGUUGAAUCGAGUUUAUCAUG	≤ -4.2
GGAUCUUGUCGAUCUAACAAAAGAGACAAAUCUGCCACAGAGCUUGAGAGCAUCUUCGGAUGCAGACGCGGCAGCCUUCGGUGGCGCGAUAGCGCCAAUGUGCUCAACUAUGACACGCAAAACGCGCGCUCCGUUGAAUGGACUUUAUCAUG	≤ -4.2
GGAUCGUCUCGAUCUGACAAAAACGACAAAUCUGCCACAAAGCUUGAGAGCAUCUUCGGAUGCAGAGGCGGCAGCCUUCGGUGGCGCGAUAGCGCCAACGUUCUCAACUAUGACACGCAAAACGCGUGCUCCGUUGAAUGGAGUCUAUCAUG	≤ -4.2
GGAUCUUCUCGAUCUAACAAAAAAGAUAAAUCUGCCACAAAGCUUGAGAGCAUGUUCGGAUGCAGAGGCGGCAGCCUUCGGUGACGCGAUAGCGGCAACGUUCUCAACUAUGACACGCAAAGCGCGUGCUCCGUUGAAUGGAGUUUAUCAUG	-2.89
GGAUCUUCUCGAUCUAACAUAAACGACAAAUCUGCCACAAAGCUUGAGCGCAUCUUCGGAUGCAGAGGCGAAAGCCUUCGGUGGCGCGAUAGUGCCAACGUUGUCAACCAUGACACGCAAAACGCGUGCUCCGUUGAAUGGAGUUUAUCAUG	≤ -4.2
GGAUCUUCUCGAUCUAACAAAAAAGACAAAUCUGCCACAAAGCUUGAGAGCAUGUUCGGAUGCAGAGGCGGCAGCCUUCGGUGGCGCGAUAGCGCCAACGUUCUUAACUAUGACACGCAAAACGCGUGCUCCGUUGAAUGGAGUUUAUCAUG	-1.24
GGAUCUUCUCGAUCUAACAAAAAAGACAAAUCUGCCACAAAGCUUGAGAGCAUCUUCGGAUGCAGAGGCGGCAGCCUUCGGUGGCGCGAUAACGCCAACGUUGUCAACUAUGACACGCAAAACGCGUGGUCCGAUGAAUGGAGUUUAUCAUG	≤ -4.2
GGAUCUUCUCGAUCUAACAAAAAAAACAAAUCCGACACAAAGCUUGAGAGCAUCUUCGGAUGCAGAGGCGGCCGCCUUCGGUGGCGCGAUGGCGCCAACGUUCUCAACUAUGACACAUAAAACGCGUGCUCCGUUGAAUGGAGUUUAUCAUG	≤ -4.2
GGAUCUUCUCGAUCUAACAAAAAAUACAUAUCUGCCAUAAAGCUUGAGAGCAUCUUCGGAUGCAGAGGCCGCAGCCUUCGGUGGCGCGAUAGCGCCAACGUUCUCAACUAUGACACGCAAAACGCGUGCUCCGUUGAAUGGAGUUUAUCAUG	≤ -4.2
GGAUCUUCUUGAUCUACCAAAAAAGACAAAUCUGCCACAAAGCUUGAGAGCAUCUUCGGAUGCAGAGGCGGCAGCCUUCGGUGGCGCGAUAGCGCCAACGUUCUCAACUAUGACACGCAAAACGCGUGCUCCGUUGAAUGGAGUUUAUCAUG	-2.07
GGAUCUUCUCGAUCUAACAAAAAAGACAAAUCUGCCACAAAGCUGAAGAGCAUCUUCGGAUGCUGAGGCGUCAGCCUUCGAUGGCGCGGUAGCGCCAACGUUCUCAACUAUGACACGCAAAACGCGUGCUCCGUUGAAUGGGGUUUAUCAUG	≤ -4.2
GGAUCUUCUCGAUCUAACAAAAAAGACAAAUCUGCCACAAAGCUUGAGAGCAUCUUCGGAUGCAGAGGCGGCGGCCUUCGGUGGCGCGAUAGCGCGAACGUUCUCAACUAUGACACGCAAAACGCGUGCUCCGUUGAAUGGAGUUUAUCAUG	-0.616
GGAUCUUCUCGAUCUAACAAAAAAGACAAAUCUGCCACAAAGCUUGAGAGCAUCUACGGAUGCAGAGGCGGCAGCCUUCGGUGGCUCGAUAGCGCCAACGUUCUCAACUAUGACACGCAAAACGCGUGCUCCGUUGAAUGGAGUUUAUCAUG	-0.958
GGAUCUUAUCGAUCGAACAAAAAAGACAAAUCUGCCACAAAGCUUGAGAGCAUCAUCGGAUGCAGAGGCGGCUGCCUUCGGUGGCGCGAUGGCGCCAACGUUCUCAACUAUGACACGCAAAACGCGUGCUCCGUUGAAUAGAGUUUAUCAUG	≤ -4.2
GGAUCUUCUCGAUCUAACAAAAAAGACAAAUCUGCCACAAAGAUUGAGAGCAUCAUCGGAUGCAGAGGCGGCAGCCUUCGGUGGCGCGAUAACGCCAACGUUCUCAACUAUGACACGCAAAACGCGUGCUCCGUUGAAUGGAGUUUAUCAUG	≤ -4.2
GGAUCAUCACGAUCUAACAAAAAAGACAAAUCUGCCACAAAGCUUGAGAGCAUCUUCGGAUGCAGAGGCGGCAGCCUUCGGUGGCGCGAUACCGCCAACGUUCUCAACUAUGAAACGUAAAAGGCGUGCUCCGUUGAAUGGAGUUUAUCAUG	≤ -4.2
GGAUCUUCUCGAUCUAACAAAAAAGACAAAUCUGACACAAAGCUUGAGAGCAUCUUCGGAUGCAGAGGCGGCAGCCUUCGGUCGCGCGAUAGCGCCAACGUUCUCAACUAUGAAACGCAAAACGCGUGCUCCGUUGAAUGGAGUUUAUCAUG	≤ -4.2
GGGUCUUCUCGAUCUAACAAAAAAGCCAAAUCUGCCACAAAGCUUGAGAGCAUCUUCGGGUGCAGAGGCGGCAGCCUUCGGUGGCGCGAUAGCGCCAACGUUCUCAACUAUGACACGCAAAACGCGUGCUCCGUUGAAUGGAGUUUAUCAUG	-2.26
GGAUCUUCUCGAGCUUACAAAAAAGACAAAUCGGCCACAAAGCUUGAGACCAUCUUCGGAUGCAGAGGCGGCAGCCUUCGCUGGCGCGAUAGCGCCAACGUUCUCAACUAUGACACGCAAAACGCGUGCUCCGUUGAAUGGAAUUUAUCAUG	≤ -4.2

Variant	polymerase ribozyme fitness (log ratio)
GGAUCUUCUCGAUCUAACAGAAAAGACAAAUCUGCCACAAAGCUUGAAAGCAUCUUCGGAUGCAGAGGAGGCAGCCUUCGGUGGCGCGAUAGCGCCAUCGUUCUCAACUAUGACACGCAAAACGCGUGCUCCGUUGAAUGGGGUUUAUCAUG	-3.3
GGAUCUUCUCGAUCUAACAAAAAAGACAAAUCUGCCACAAAGCUUGAGAGCAUCUUCGGAUGCAGAGGCGGCAGCCUUCGGUGGCGCGAGACCGCCAACGUUCUCAACUAUGACACGCAAAACGCGUGCUCCGUUGAAUGGAGUUUAUCAUG	≤ -4.2
GGAUCUUCUCGAUCUAGCAAAGAUGACAAAUCUGCCACAAAGCUUACGAGCAUCUUCGGAUGCAGAGGCGGCAGCCUUCGGUGGCGCGAUAGCGCCAACGUUCUCAACUAUGACACGCAAAAAGCGUGAUCCGUUGAAUGGAGUUUAUCAUG	≤ -4.2
GGAUCUUCUCGAUCUAACAAAAAAGACAAAUCUGCCACAAAGCUUGAGAGCAUAUUCGGAUGCAGAGGCGGCAGCCUUCGGUGGCGCGAGAGCGCCAACGUUCUCAACUAUGACACGCAAAACGCGUGCUCCGUUGAAUGGAGUUUAUCAUG	≤ -4.2
GGAUCUUCUUGAUCUAACAAAAAAGACAAAUCUGCCACAAAGCUUGAGAGCGUCUUCGGAUGCAGAUGAGGCAGCCUUCGGUGGCGCGAUAGCGCCAACGUUCUCAACUAUGACACGCAAAACGCGUGCUCCGUUGAAUGGAGUUUAUCAUG	≤ -4.2
GGAUCUUCUCGAUCUACCAAAAAAGACAAUUCUGCCACAAAGCUUGAGAGCAUCUUCGGCUACAGGGGCGGCAGCCUUCGGUGACGCGAUAGCGCCAACGUUCUCAACUAUGACACGAAAAACGCGUGCUCCGUUGAAUGGAGUUUAUCAUG	≤ -4.2
GGAUCUUCUCGAUCUAACAAAAAAGACAAAUCUGCCACAAAGCUUGAGAGCAUCUUUGGAUGCAGAGGCGGCAGCCUUCGGUGGCGCGAUAGCGCCAAGGUUCUUAACUAUGACACGCAAAACGCGUGCUCCGUUGAAUGGAGUUUAUCAUG	-1
GGAUCUUCUCGUUCUAACAAAAAAGACAAAUCUGCCACAAAGCUUGAGAGCAUCUUCGGAUGCAGAGGCGGCAGCCUUCGGUGUCGCGAUAGCGCCAACGUUCUCAACUAUGACACGCAAAACGCGUGCUCCGUUGAAUGCAGUUUAUCAUG	-2.48
GGAUCUUCUCGAUCUAACAAAAAAGACAAAUCUGCCACAAAGCUUGAGAGCAUCUUCGGAUGCAGAGGCGGCAGCCUUCGGUGGUGCGAUAGCGCCAACGUUCUCAACUAUGACACGCAAAACGCUUGCUCCGUUGAAUGGAGUUUAUCAUG	-1.6
GGAUCUUCUCGAUCUAACAAAAAAGACAAACCUGCCACAAAGCUUGAAAGCAUCUUCGGAUGCAGAGGCGGCAGCCUUAGGUGGCGCGAUAGCGCCAACGUUCUUAACUAUGACACGCAGAACGCGUGCUCCGUUGAAUGUAGUUUCUCAUG	≤ -4.2
GGAUCUUCUCGAUCUAACAAAAAAUACAAAUCUGCGACAAAGCUUGAGAGCAUCUUCGGAUGCAGAGGCGGCAGCCUUCGGUGGCGCGAUAGCGCCGACGUUCUCAACCAUGACACGCAAAACGCGUGCUCCGUUGAAUGGAGUUUAUCAUG	≤ -4.2
GGAUCUUCUUGAUCUAACAAAAGAGACAAAUCUGCAACAAAGCUUGAGAGCAUCUUCUGAUGCAGAGGCGGCAGCCUUCGGUGGCGCGAUAGCGCCAACGUUCUCAACUAUGUCACGCAAAACGCGUGCUCCGUUGAAUGGAGUUUAUCAUG	≤ -4.2
GGAUAUUCUCGAUCUAACAAAAAAGACAAUUCUGCCACAAAGCUUGAGAGCAUCUUCGGAUGCAGAGGCGGCAGCCAUCGGUGGCGCGAUAUCGCCAACGUUCUCAACUAUGACACGCAAAACGCGUGCUCCGUUGAAUGGAGUUUAUCAUG	≤ -4.2
GGAUCUUCUCGAUCUAACAAAAAAGACAAAUCUGCCACAAAGCUUGAGAGCAUCUUUGGAUGCAGAGGCGGCAGCCUUCGGUGGCGGGAUAGCGCCAACGUUCUCACUUAUGACACGCAAAACGCGUGCUCCGUAGAAUGGAGUUUAUCACG	≤ -4.2
GGAUCUUCUCGAGUUAACAAAAAAGACAAAUCUGCCACAAAGCUUGAGAGCAUCUUCGGCUGCAGAGGCGGCAGCCUUCGGUGGCGCUAUAGCGCCAACGUUCUCAACUAUGACACGCAAAUCGCGUGCUCCGAUGAAUGGAGUUUAUCAUG	≤ -4.2
GGAUCUUCUCGAUCUAACAAAAAAGACAAAUCUGCCACAAAGCUUGAGAGCAUCUUCGGGUGCAGAGGCGGCAGCCUUCGGUGGUGCGAUAGCGCCAACGUUCUCAACUAUGACACGCAAAACGCGUGCUCCGUUGAAUGGAGUUUAUCAUG	-0.323
GGAUCUUCUCGAUCUAACAAAAAAGACAAAUCUGCCACAAAGCUUGAGAGCAUCUUCGGAUGCAGAGGCGGCAGCCUUCGGUGGCGCGAUAGCGCCAACGUUCUCAGCUAUGACACGCAAAACGCGUGCUCCGUUGAAUGGAGUUUAUCAUG	-2.92
GGAUCUUCUCGAUCUAACAAAAAAGACAAAUCUGCCAGAAAGCUUGAGAGCAACUUCGGAUGCAGAGGCAGCAGCCUUCGGUGGCGCGAUAACGCCAACGUUCUCACCUAUGACACGCAAAACGCGUGCUCCGUUGAAUGGAGUUUAUCAUG	≤ -4.2
GGAUCUUCUCGAUCUAACAAAAAAGACAAAUCUGCCACAAAGCUUCAAAGCAUCUUCGGAUGCAGAGGCGGCAGCGUGCGGUAGCGCGAUAGCGCCAACGUUCUCAACUAUGACACGCAAAACGCGUGCUCCGUUGAAUGGACUUUAUCAUG	-4.2

From the RNAGym collection of RNA variant scans (doi:10.1073/pnas.2313332121)
